Results: US20260274961A1 (BRIGHAM AND WOMEN S HOSPITAL, published 2026)
One block for each molecule: values may come before it.

Tests used:
[1] = molecular target: site-specific biotinylated monomeric human CD32a^H (FcγRIIa, histidine-131 variant), recombinant (human) (UniProt P12318); test: SPR (Biacore 3000), steady state, monomeric IgG, pH 7.4
[2] = molecular target: site-specific biotinylated monomeric human CD32a^R (FcγRIIa, arginine-131 variant), recombinant (human) (UniProt P12318); test: as above
[3] = molecular target: His-tagged soluble mouse FcRn (mFcRn), recombinant (mouse) (UniProt Q61559); test: method not stated; neutral pH
[4] = molecular target: site-specific biotinylated monomeric human CD32a^H (FcγRIIa, histidine-131 variant), recombinant (human) (UniProt P12318); test: SPR steady state (refers to Table 6)
[5] = molecular target: T1, His-tagged soluble human FcRn (hFcRn), recombinant (human, UniProt P55899 24-290; P61769 21-119, limits assumed); test: bridging ELISA at pH 5.5: hFcRn/ALP-nanobody reporter complex at one concentration on captured CD32a^H without IgG
T1 construct: Made in an insect cell system 'as described previously'; also called recombinant hFcRn; hFcRn reporter complex (with ALP-conjugated hFcRn-specific nanobody)

[6] = molecular target: T2, His-tagged soluble mouse FcRn (mFcRn), recombinant (mouse, UniProt Q61559 22-290; P01887 21-119, limits assumed); test: SPR at pH 5.5: mFcRn injected alone over CD32a^H captured on neutravidin (variant as titled on the sheet); the concentration is not printed on the sheet
T2 construct: Made in an insect cell system 'as described previously'; also called recombinant mFcRn
T2 sequence (looked up): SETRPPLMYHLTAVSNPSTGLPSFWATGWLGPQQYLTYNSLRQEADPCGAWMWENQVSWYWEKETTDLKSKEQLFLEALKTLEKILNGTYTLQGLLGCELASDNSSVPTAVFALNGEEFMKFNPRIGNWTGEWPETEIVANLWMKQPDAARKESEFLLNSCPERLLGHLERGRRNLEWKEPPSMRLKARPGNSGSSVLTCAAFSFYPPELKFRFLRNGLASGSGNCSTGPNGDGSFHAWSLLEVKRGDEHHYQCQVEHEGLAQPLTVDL
T2 sequence (b2m, looked up): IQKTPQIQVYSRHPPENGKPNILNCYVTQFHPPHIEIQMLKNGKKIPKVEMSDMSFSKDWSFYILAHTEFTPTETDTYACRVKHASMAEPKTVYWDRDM
Procedure: (§1) Recombinant C-terminus-biotinylated CD32a variants were captured on neutravidin-coated plates. Analyte(s) were then injected as indicated and specified in the material and methods. […] Recombinant C-terminus-biotinylated CD32a variants were captured on neutravidin amine-coupled CM5 sensor chips. Analyte(s) were then injected as indicated and specified in the material and methods.
(§2) The cDNAs encoding for CD32a^R and CD32a^H were subcloned into a pcDNA3.1 vector and sequences verified by DNA sequencing. […] To obtain clones with similar expression of CD32a^R or CD32a^H, transfected MDCK-II, HEK293T^H2-Kb, and RAW264.7 were processed by fluorescence-activated cell sorting (FACS; BD FACSAria II™). SPR and ELISA CD32a-IgG-FcRn binding SPR analysis was performed using a Biacore 3000™ instrument (GE Healthcare™). CM5™ sensor chips (GE Healthcare™) were coupled with neutrAvidin (Pierce™) (~1000 RU) using amine coupling chemistry, by injecting 5 g/ml in 10 mM sodium acetate, pH 4.5 (GE Healthcare™) at 25° C.).

[7] = molecular target: T1, His-tagged soluble human FcRn (hFcRn), …; test: bridging ELISA at pH 5.5: hFcRn/ALP-nanobody reporter complex at one concentration on captured CD32a^R without IgG
[8] = molecular target: T2, His-tagged soluble mouse FcRn (mFcRn), …; test: SPR at pH 5.5: mFcRn injected alone over CD32a^R captured on neutravidin (variant as titled on the sheet); the concentration is not printed on the sheet
Procedure: as §1, §2

Kd [1]: 1300 nM
Kd [2]: 2000 nM
Molecule: anti-NIP chimeric IgG with wild type human IgG1 Fc (hIgG1^WT) (antibody)

Kd [1]: 4800 nM
Molecule: anti-NIP hIgG1-I253A/H310A/H435A (hIgG1^IHH) (from UniProt P01857 1-330) (antibody)

Kd [3]: 7.4 nM
decrease of binding against hIgG1^WT [4]: 50%
Kd [1]: 2800 nM
Molecule: anti-NIP hIgG1-M252Y/S254T/T256E/H433K/N434F (hIgG1^MST/HN) (from UniProt P01857 1-330) (antibody)

binding result [5]: no binding
binding result [6]: no binding
B1: site-specific biotinylated monomeric human CD32a^H (FcγRIIa, histidine-131 variant), recombinant (receptor, UniProt P12318 34-218, looked up)
chain: QAAAPPKAVLKLEPPWINVLQEDSVTLTCQGARSPESDSIQWFHNGNLIPTHTQPSYRFKANNNDSGEYTCQTGQTSLSDPVHLTVLSEWLVLQTPHLEFQEGETIMLRCHSWKDKPLVKVTFFQNGKSQKFSHLDPTFSIPQANHSHSGDYHCTGNIGYTLFSSKPVTITVQVPSMGSSSPMGI
modifications: C-terminus biotinylated
notes: Bought recombinant protein; also called CD32a-H131; C-terminus biotinylated CD32a^H

binding result [7]: no binding
binding result [8]: no binding
B2: site-specific biotinylated monomeric human CD32a^R (FcγRIIa, arginine-131 variant), recombinant (receptor, UniProt P12318 34-218, looked up)
chain: QAAAPPKAVLKLEPPWINVLQEDSVTLTCQGARSPESDSIQWFHNGNLIPTHTQPSYRFKANNNDSGEYTCQTGQTSLSDPVHLTVLSEWLVLQTPHLEFQEGETIMLRCHSWKDKPLVKVTFFQNGKSQKFSRLDPTFSIPQANHSHSGDYHCTGNIGYTLFSSKPVTITVQVPSMGSSSPMGI
modifications: C-terminus biotinylated
notes: Bought recombinant protein; The substitution is written against the histidine-131 form; also called CD32a-R131; C-terminus biotinylated CD32a^R
